Here are results for 39 molecules from US20040053822A1.

B1: MAGE2.226 9-mer … (peptide)
peptide: SMLEVFEGR
B2: MAGE2.157 10-mer … (peptide)
peptide: YLQLVFGIEV
B3: MAGE3.138.V2R … (peptide)
peptide: YVFPVIFSR
B4: MAGE2.277 9-mer … (peptide)
peptide: ALIETSYVK
B5: MAGE2.73.V2K9 … (peptide)
peptide: TVINYTLWK
B6: MAGE2/3.116 8-mer LVHFLLLK (peptide)
peptide: LVHFLLLK
B7: MAGE3.138.V2 … (peptide)
peptide: YVFPVIFSK
B8: MAGE2/3.116 9-mer … (peptide)
peptide: LVHFLLLKY
B9: MAGE2.69.V2K9 … (peptide)
peptide: SVFSTTINK
B10: MAGE3.138 9-mer … (peptide)
peptide: YFFPVIFSK
B11: MAGE1/3.189 10-mer … (peptide)
peptide: LLGDNQIMPK
B12: MAGE2.157 (10-mer) (peptide)
peptide: YLQLVFGIEV
B13: MAGE2.112 (9-mer) (peptide)
peptide: KMVELVHFL
B14: MAGE3 230-238 (position 230, 9 amino acids) (peptide)
peptide: VFEGREDSI
B15: MAGE3 142-151 (position 142, 10 amino acids) (peptide)
peptide: NWQYFFPVIF
B16: MAGE3 150-158 (position 150, 9 amino acids) (peptide)
peptide: IFSKASSSL
B17: MAGE3 76-84 (position 76, 9 amino acids) (peptide)
peptide: NYPLWSQSY
B18: MAGE3 134-143 (position 134, 10 amino acids) (peptide)
peptide: EMLGSVVGNW
B19: MAGE3 144-151 (position 144, 8 amino acids) (peptide)
peptide: QYFFPVIF
B20: MAGE3 177-184 (position 177, 8 amino acids) (peptide)
peptide: IFATCLGL
B21: MAGE3 249-256 (position 249, 8 amino acids) (peptide)
peptide: HFVQENYL
B22: MAGE3 175-182 (position 175, 8 amino acids) (peptide)
peptide: LYIFATCL
B23: MAGE3 175-184 (position 175, 10 amino acids) (peptide)
peptide: LYIFATCLGL
B24: MAGE3 230-239 (position 230, 10 amino acids) (peptide)
peptide: VFEGREDSIL
B25: MAGE3 185-195 (position 185, 11 amino acids) (peptide)
peptide: SYDGLLGDNQI
B26: MAGE3 221-228 (position 221, 8 amino acids) (peptide)
peptide: IWEELSVL
B27: MAGE2.112 … (peptide)
peptide: KMVELVHFL
B28: MAGE2.157 … (peptide)
peptide: YLQLVFGIEV
B29: MAGE2.170.M5 … (peptide)
peptide: VPISMLYIL
B30: MAGE2.170.110 … (peptide)
peptide: VPISHLYILI
B31: MAGE3.77.I8 YPLWSQSI (peptide)
peptide: YPLWSQSI
B32: MAGE3 peptide, position 150, 9 amino acids (peptide)
peptide: IFSKASSSL
B33: MAGE3 peptide, position 144, 8 amino acids (peptide)
peptide: QYFFPVIF
B34: MAGE3 peptide, position 142, 10 amino acids (peptide)
peptide: NWQYFFPVIF
B35: MAGE3 peptide, position 175, 10 amino acids (peptide)
peptide: LYIFATCLGL
B36: MAGE3 peptide, position 185, 11 amino acids (peptide)
peptide: SYDGLLGDNQI
B37: MAGE3 peptide, position 134, 10 amino acids (peptide)
peptide: EMLGSVVGNW
B38: MAGE3 peptide, position 175, 8 amino acids (peptide)
peptide: LYIFATCL
B39: MAGE3 peptide, position 177, 8 amino acids (peptide)
peptide: IFATCLGL

One experiment addresses HLA-A*3301 (human). Description: competition with 125I probe peptide, purified HLA. The note with it: remark: other sources report otherwise.
Turning to B1, the IC50 (usually the concentration that gives 50% inhibition) is 9 nM.

The target of another experiment is HLA-A*0201 (human). The experiment is described as follows: competition with 125I probe peptide, purified HLA. To be noted: remark: other sources report otherwise.
Take B2: the IC50 stood at 50 nM.

In another experiment the target is HLA-A*3101 (human). Description: competition with 125I probe peptide, purified HLA. The note with it: remark: other sources report otherwise.
As for B3, the IC50 came out at 6 nM.
As for B4, the IC50 worked out at 900 nM.
Same read-out and setting: the result for B5 reads 9000 nM.

A further experiment concerns the target HLA-A*1101 (human). Description: competition with 125I probe peptide, purified HLA. To be noted: remark: other sources report otherwise.
B6 yielded an IC50 of 40 nM. That is a double-digit nanomolar value.
The same measure, in the same setting: the value for B7 was 3 nM.

For the next experiment, the target named is HLA-A*6801 (human). The experiment is described as follows: competition with 125I probe peptide, purified HLA. To be noted: remark: other sources report otherwise.
In turn, B6 had an IC50 of 400 nM.
On the same count and under the same terms, the result for B8 reads 8000 nM.

In the next experiment the target is HLA-A*0301 (human). The experiment is described as follows: competition with 125I probe peptide, purified HLA. The note with it: remark: other sources report otherwise.
For B9, the IC50 was determined as 20 nM. This lies in the double-digit nanomolar range.
Still for that read-out and setting: the value for B10 was 5000 nM; that for B11 was 500 nM.

The target of a further experiment is HLA-A*0201 (human). The experiment is described as follows: inhibition of 125I-probe binding to purified HLA-A*0201. The note with it: remark: other sources report otherwise.
B12: the IC50 is below 500 nM.
For B13, the IC50 was below 500 nM.

The next experiment addresses HLA-A*2401 (human). Description: inhibition of 125I-labelled standard peptide binding to purified HLA.
Conditions: not given
Consider B14, for which the relative binding ratio (IC50 standard peptide / IC50 test peptide) was -0.0004.
The same measure, in the same setting: the value for B15 was 0.017; that for B16 was 0.016.
Still for that read-out and setting: the value for B17 was 0.027; that for B18 was 0.0017; that for B19 was 0.12.
Same read-out and setting: the result for B20 reads 0.012; that for B21, -0.0004; that for B22, 0.014.
Regarding B23, the relative binding ratio (IC50 standard peptide / IC50 test peptide) came out at 0.048.
Turning to B24, the relative binding ratio (IC50 standard peptide / IC50 test peptide) is -0.0005.
Same read-out and setting: the result for B25 reads 0.0026; that for B26, -0.0004.

The target in the next experiment is HLA-A*0201 (human). The experiment is described as follows: competition vs 125I probe peptide, purified HLA. To be noted: remark: other sources report otherwise.
B27 registered a half-maximal inhibitory concentration (IC50) of 9.8 nM.
Same read-out and setting: the result for B28 reads 50 nM.

In another experiment the target is HLA-B*5101 (human). Description: competition vs 125I probe peptide, purified HLA. The note with it: remark: other sources report otherwise.
For the molecule B29, the IC50 is 70 nM. That is a double-digit nanomolar value.
B30: the IC50 stood at 50 nM. The IC50 values of the last two molecules are within 1.5-fold of each other.

For a further experiment, the target named is HLA-B*0702 (human). The experiment is described as follows: competition vs 125I probe peptide, purified HLA. The note with it: remark: other sources report otherwise.
For the molecule B31, the concentration for half-maximal inhibition (IC50) was 60 nM.

The target in the next experiment is HLA-A2401 (human). Description: inhibition of 125I probe peptide binding to purified HLA.
Conditions: not given
As for B32, the relative binding ratio (IC50 standard/IC50 peptide) amounted to 0.016.
Same read-out and setting: the result for B33 reads 0.12; that for B34, 0.017; that for B35, 0.048.
Consider B36, for which the relative binding ratio (IC50 standard/IC50 peptide) worked out at 0.0026.
On the same count and under the same terms, the value for B37 was 0.0017; that for B38 was 0.014; that for B39 was 0.012.
